# Source: the supplement of paper PMC7877785
# ± gives the uncertainty stated by the source.
# Assay: self-splicing fitness, log relative to wild type (ln ratio); higher = more splicing; Tetrahymena group I intron in knt gene, E. coli kanamycin selection, DiMSum; sequences stand for … in CUCUCU…GGAGGGAAAAGUUAUCAGGCAUGCACCUGGUAGCUAGUCUUUAAACCAAUAGAUUGCAUCGGUUUAAAAGGCAAGACCGUCAAAUUGCGGGAAAGGGGUCAACAGCCGUUCAGUACCAAGUCUCAGGGGAAACUUUGAGAUGGCCUUGCAAAGGGUAUGGUAAUAAGCUGACGGACAUGGUCCUAACCACGCAGCCAAGUCCUAAGUCAACAGAUCUUCUGUUGAUAUGGAUGCAGUUCACAGACUAAAUGUCGGUCGGGGAAGAUGUAUUCUUCUCAUAAGAUAUAGUCGGACCUCUCCUUAAUGGGAGCUAGCGGAUGAAGUGAUGCAACACUGGAGCCGCUGGGAACUAAUUUGUAUGCGAAAGUAUAUUGAUUAGUUUUGGAGUACUCGUGGUCG
# Method in brief: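 Pooled colonies went to amplicon sequencing on an Illumina HiSeq 2500 after six replicate transformations. The plates were LB agar with 100 μg/mL carbenicillin, 50 μM IPTG and 0.2% rhamnose, with or without 25 μg/mL kanamycin, incubated overnight at 37°C or 30°C. The E. coli BL21(DE3) library had all eight P1ex-region intron nucleotides randomised, the intron placed in the knt kanamycin-resistance gene on pET-22b(+). DiMSum fitness is the error-weighted combination of replicate fold changes, kanamycin against none, normalised to wild type.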
Sequence,self-splicing fitness (ln) (30 °C),self-splicing fitness (ln) (37 °C)
CACAAGCAAUAUUACGGCAC,-2.95 ± 0.19,-1.56 ± 0.17
CACAAGCAAUAUUACGGCCA,-1.1 ± 0.13,-0.928 ± 0.16
CACAAGCAAUAUUACGGGCU,-4.15 ± 0.24,-2.29 ± 0.17
CACAAGCAAUAUUACGUACG,-0.467 ± 0.063,0.449 ± 0.083
CACAAGCAAUAUUACGUACU,-3.09 ± 0.12,-0.878 ± 0.1
CACAAGCAAUAUUACGUAUG,-2.55 ± 0.095,-1.08 ± 0.085
CACAAGCAAUAUUACGUGAG,-4.48 ± 0.15,-3.21 ± 0.19
CACAAGCAAUAUUACGUGUG,-3.65 ± 0.12,-2.69 ± 0.12
CACAAGCAAUAUUACGUUUU,-4.18 ± 0.15,-3.45 ± 0.22
CACCAGCAAUAUUACGAAGA,-3.26 ± 0.21,-1.81 ± 0.2
CACCAGCAAUAUUACGAGCU,-3.87 ± 0.16,-3.55 ± 0.27
CACCAGCAAUAUUACGCACA,-1.23 ± 0.16,-0.504 ± 0.14
CACCAGCAAUAUUACGCAGU,-3.61 ± 0.19,-2.09 ± 0.23
CACCAGCAAUAUUACGCCCU,-4.12 ± 0.26,-0.642 ± 0.11
CACCAGCAAUAUUACGCCUU,-3.62 ± 0.14,-1.72 ± 0.12
CACCAGCAAUAUUACGCGAU,-2.55 ± 0.14,-2.61 ± 0.21
CACCAGCAAUAUUACGCGUC,-2.87 ± 0.15,-0.883 ± 0.12
CACCAGCAAUAUUACGCUGC,-4.19 ± 0.22,-2 ± 0.16
CACCAGCAAUAUUACGCUGG,-5.21 ± 0.25,-2.41 ± 0.16
CACCAGCAAUAUUACGCUGU,-3.61 ± 0.15,-2.63 ± 0.19
CACCAGCAAUAUUACGGAGG,-1.85 ± 0.078,-1.4 ± 0.11
CACCAGCAAUAUUACGGAUC,-1.96 ± 0.08,-1.32 ± 0.094
CACCAGCAAUAUUACGGCAG,-0.179 ± 0.045,-0.218 ± 0.063
CACCAGCAAUAUUACGGCCA,-0.747 ± 0.067,-1.22 ± 0.082
CACCAGCAAUAUUACGGCUA,-1.1 ± 0.083,-0.202 ± 0.074
CACCAGCAAUAUUACGGCUG,-3.78 ± 0.13,-1.29 ± 0.083

Sequence,self-splicing fitness (ln) (30 °C),self-splicing fitness (ln) (37 °C)
CACCAGCAAUAUUACGUCCC,-4.07 ± 0.31,-2.79 ± 0.32
CACCAGCAAUAUUACGUCGU,-3.78 ± 0.13,-1.83 ± 0.097
CACCAGCAAUAUUACGUCUC,-2.89 ± 0.13,-2.38 ± 0.21
CACCAGCAAUAUUACGUGAA,-4.03 ± 0.14,-0.875 ± 0.096
CACCAGCAAUAUUACGUGCU,-3.4 ± 0.11,-2.7 ± 0.15
CACCAGCAAUAUUACGUUGG,-4.24 ± 0.13,-2.74 ± 0.13
CACCAGCAAUAUUACGUUUC,-4.36 ± 0.19,-2.58 ± 0.22
CACGAGCAAUAUUACGAACC,,-1.7 ± 0.32
CACGAGCAAUAUUACGAACU,,-1.72 ± 0.38
CACGAGCAAUAUUACGACAC,-2.84 ± 0.23,-2.18 ± 0.3
CACGAGCAAUAUUACGAGGA,-2.27 ± 0.15,-2.68 ± 0.16
CACGAGCAAUAUUACGAUCC,,-1.9 ± 0.47
CACGAGCAAUAUUACGAUCU,,-1.99 ± 0.27
CACGAGCAAUAUUACGCAGU,-3.4 ± 0.31,-3.5 ± 0.37
CACGAGCAAUAUUACGCAUG,-3.6 ± 0.11,-2.74 ± 0.15
CACGAGCAAUAUUACGCGGC,,-1.38 ± 0.22
CACGAGCAAUAUUACGCGUA,-2.23 ± 0.12,-1.28 ± 0.15
CACGAGCAAUAUUACGCUCG,-4.11 ± 0.39,-1.3 ± 0.22
CACGAGCAAUAUUACGGCGC,,-1.73 ± 0.4
CACGAGCAAUAUUACGGUUG,-3.57 ± 0.15,-1.6 ± 0.12
CACGAGCAAUAUUACGUAGA,-2.34 ± 0.095,-3.42 ± 0.29
CACGAGCAAUAUUACGUCAU,-3.65 ± 0.19,-2.49 ± 0.21
CACGAGCAAUAUUACGUCUU,-2.89 ± 0.22,-2.82 ± 0.24
CACGAGCAAUAUUACGUUCA,-2.99 ± 0.18,-2.49 ± 0.24
CACGAGCAAUAUUACGUUCC,-2.89 ± 0.34,-2.15 ± 0.34
CACGAGCAAUAUUACGUUGG,-3.11 ± 0.16,-1.79 ± 0.14

Sequence,self-splicing fitness (ln) (30 °C),self-splicing fitness (ln) (37 °C)
CACGAGCAAUAUUACGUUGU,-3.37 ± 0.15,-2.8 ± 0.18
CACUAGCAAUAUUACGAAUG,-1.7 ± 0.075,-1.01 ± 0.086
CACUAGCAAUAUUACGAGGA,-4.01 ± 0.31,-1.49 ± 0.15
CACUAGCAAUAUUACGAUUU,-2.4 ± 0.12,-2.2 ± 0.15
CACUAGCAAUAUUACGCCGA,-2.8 ± 0.21,-1.49 ± 0.17
CACUAGCAAUAUUACGCGCC,-2.9 ± 0.23,-1.22 ± 0.22
CACUAGCAAUAUUACGCGGG,-2.48 ± 0.13,-2.01 ± 0.15
CACUAGCAAUAUUACGCUGU,-3.17 ± 0.14,-3.3 ± 0.23
CACUAGCAAUAUUACGGAUU,-4.22 ± 0.2,-2.28 ± 0.12
CACUAGCAAUAUUACGGCCA,-3.1 ± 0.23,
CACUAGCAAUAUUACGGCCG,0.0261 ± 0.086,-0.0313 ± 0.12
CACUAGCAAUAUUACGGGAC,-3.86 ± 0.21,-1.7 ± 0.18
CACUAGCAAUAUUACGGGGA,-2.57 ± 0.19,-1.63 ± 0.17
CACUAGCAAUAUUACGGGGC,-3.4 ± 0.17,-2.23 ± 0.14
CACUAGCAAUAUUACGUACU,-2.87 ± 0.16,-2.81 ± 0.19
CACUAGCAAUAUUACGUCAA,-3.77 ± 0.22,-2.27 ± 0.14
CACUAGCAAUAUUACGUCCG,-0.0671 ± 0.11,0.268 ± 0.13
CACUAGCAAUAUUACGUGAU,-3.32 ± 0.12,-3.21 ± 0.15
CACUAGCAAUAUUACGUUCG,0.203 ± 0.084,0.725 ± 0.11
CACUAGCAAUAUUACGUUGU,-4.22 ± 0.14,-2.08 ± 0.12
CACUAGCAAUAUUACGUUUU,-2.97 ± 0.12,-2.4 ± 0.13
CAGAAGCAAUAUUACGAAGG,-1.23 ± 0.12,-1.1 ± 0.16
CAGAAGCAAUAUUACGACGC,-3 ± 0.14,-1.28 ± 0.12
CAGAAGCAAUAUUACGAGGA,-4.09 ± 0.4,-2.01 ± 0.2
CAGAAGCAAUAUUACGAGGU,-4.11 ± 0.36,-3 ± 0.32
CAGAAGCAAUAUUACGAUAG,-0.588 ± 0.075,0.256 ± 0.093
